The values that follow come from publication PMC3302767.

Experiment [1] addresses Plasmodium falciparum formin 1 FH1 and FH2 domains (Pf-Frm1-FH1FH2) (P. falciparum). Kind of experiment: SEC-MALS; Superdex 200 10/300 GL, 200 µl of each formin at 1 mg/ml; 50 mM sodium phosphate pH 7.0, 50 mM NaCl, 1 mM DTT; monomer to dimer. A general note: Size exclusion chromatography separates by hydrodynamic size, large species first.
In experiment [2] the target is Plasmodium falciparum formin 1 FH2 domain with the lasso segment (Pf-Frm1-FH2) (P. falciparum). Described as above.

On to “Plasmodium falciparum formin 1 FH1 and FH2 domains (Pf-Frm1-FH1FH2) (domain or fragment)”, for which the stoichiometry N in experiment [1] was 2. For “Plasmodium falciparum formin 1 FH2 domain with the lasso segment (Pf-Frm1-FH2) (domain or fragment)”, the stoichiometry N in experiment [2] turned out to be 2.

A word on the stoichiometry N: it is the number of molecules, sites or subunits per partner or assembly.
